Data from US20260274985A1 (MYTHIC THERAPEUTICS, published 2026).

Target: T1, TROP2 on TROP2-positive NCI-H1975 cells (human, UniProt P09758 27-323)
T1 sequence: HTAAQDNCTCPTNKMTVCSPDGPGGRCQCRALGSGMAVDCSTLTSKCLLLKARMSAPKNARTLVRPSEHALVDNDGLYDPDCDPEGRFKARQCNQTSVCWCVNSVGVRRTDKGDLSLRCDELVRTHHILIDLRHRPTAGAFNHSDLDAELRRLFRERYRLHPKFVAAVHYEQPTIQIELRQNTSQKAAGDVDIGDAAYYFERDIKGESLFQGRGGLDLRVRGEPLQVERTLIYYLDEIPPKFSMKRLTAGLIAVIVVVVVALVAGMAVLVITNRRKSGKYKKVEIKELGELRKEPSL
Assay: cell-based or functional assay

Row | Binder | FOW H1975 (10 nM) [fold over parent antibody]
1 | MYT13435 (antibody, V domains shown) VH: QVQLQQSGSELKKPGASVKVSCKASGYTFTNYGMNWVKQAPGQGLKWMGWINTYTGEPTYTDDHKGRFAFSLDTSVSTAYLQISSLKADDTAVYFCARGGFGSSYWYFDVWGQGSLVTVSS VL: DIQLTQSPSSLSASVGDRVSITCKASQDVSIAVAWYQQKPGKAPKLLIYSHSHRYTGVPDRFSGSGSGTDFTLTISSLQPEDFAVYYCQQHYHTPLTFGAGTKVEIK | 1.33
2 | MYT13405 (antibody, V domains shown) VH: QVQLQQSGSELKKPGASVKVSCKASGYTFTNYGMNWVKQAPGQGLKWMGWINTYTGEPTYTDDFKHRFAFSLDTSVSTAYLQISSLKADDTAVYFCARGGFGSSYWYFDVWGQGSLVTVSS VL: DIQLTQSPSSLSASVGDRVSITCKASQDVSIAHAWYQQKPGKAPKLLIYSASYRYTGVPDRFSGSGSGTDFTLTISSLQPEDFAVYYCQQHYHTPLTFGAGTKVEIK | 1.16
3 | MYT13402 (antibody, V domains shown) VH: QVQLQQSGSELKKPGASVKVSCKASGYTFTNYGMNWVKQAPGQGLKWMGWINTYTGEPTYTDHFKGRFAFSLDTSVSTAYLQISSLKADDTAVYFCARGGFGSSYWYFDVWGQGSLVTVSS VL: DIQLTQSPSSLSASVGDRVSITCKASQDVSIAHAWYQQKPGKAPKLLIYSASYRYTGVPDRFSGSGSGTDFTLTISSLQPEDFAVYYCQQHYHTPLTFGAGTKVEIK | 1.1
4 | MYT13400 (antibody, V domains shown) VH: QVQLQQSGSELKKPGASVKVSCKASGYTFTNYGMNWVKQAPGQGLKWMGWINTYTGEPTHTDDFKGRFAFSLDTSVSTAYLQISSLKADDTAVYFCARGGFGSSYWYFDVWGQGSLVTVSS VL: DIQLTQSPSSLSASVGDRVSITCKASQDVSIAHAWYQQKPGKAPKLLIYSASYRYTGVPDRFSGSGSGTDFTLTISSLQPEDFAVYYCQQHYHTPLTFGAGTKVEIK | 1.13
5 | MYT13372 (antibody, V domains shown) VH: QVQLQQSGSELKKPGASVKVSCKASGYTFTNYGMNWVKQAPGQGLKWMGWINTYTGEPTYTDDFHGRFAFSLDTSVSTAYLQISSLKADDTAVYFCARGGFGSSYWYFDVWGQGSLVTVSS VL: DIQLTQSPSSLSASVGDRVSITCKASQDVHIAHAWYQQKPGKAPKLLIYSASYRYTGVPDRFSGSGSGTDFTLTISSLQPEDFAVYYCQQHYITPLTFGAGTKVEIK | 1.18
6 | MYT13403 (antibody, V domains shown) VH: QVQLQQSGSELKKPGASVKVSCKASGYTFTNYGMNWVKQAPGQGLKWMGWINTYTGEPTYTDDHKGRFAFSLDTSVSTAYLQISSLKADDTAVYFCARGGFGSSYWYFDVWGQGSLVTVSS VL: DIQLTQSPSSLSASVGDRVSITCKASQDVSIAHAWYQQKPGKAPKLLIYSASYRYTGVPDRFSGSGSGTDFTLTISSLQPEDFAVYYCQQHYHTPLTFGAGTKVEIK | 1.13
7 | MYT13422 (antibody, V domains shown) VH: QVQLQQSGSELKKPGASVKVSCKASGYTFTNHGMNWVKQAPGQGLKWMGWINTYTGEPTYTDDFKGRFAFSLDTSVSTAYLQISSLKADDTAVYFCARGGFGSSYWYFDVWGQGSLVTVSS VL: DIQLTQSPSSLSASVGDRVSITCKASQDVHIAVAWYQQKPGKAPKLLIYSHSYRYTGVPDRFSGSGSGTDFTLTISSLQPEDFAVYYCQQHYHTPLTFGAGTKVEIK | 1.13
8 | MYT13377 (antibody, V domains shown) VH: QVQLQQSGSELKKPGASVKVSCKASGYTFTNYGMNWVKQAPGQGLKWMGWINTYTGEPTYTHDFKGRFAFSLDTSVSTAYLQISSLKADDTAVYFCARGGFGSSYWYFDVWGQGSLVTVSS VL: DIQLTQSPSSLSASVGDRVSITCKASQDVHIAVAWYQQKPGKAPKLLIYSHSYRYTGVPDRFSGSGSGTDFTLTISSLQPEDFAVYYCQQHYITPLTFGAGTKVEIK | 1.26
9 | MYT13398 (antibody, V domains shown) VH: QVQLQQSGSELKKPGASVKVSCKASGYTFTNHGMNWVKQAPGQGLKWMGWINTYTGEPTYTDDFKGRFAFSLDTSVSTAYLQISSLKADDTAVYFCARGGFGSSYWYFDVWGQGSLVTVSS VL: DIQLTQSPSSLSASVGDRVSITCKASQDVSIAHAWYQQKPGKAPKLLIYSASYRYTGVPDRFSGSGSGTDFTLTISSLQPEDFAVYYCQQHYHTPLTFGAGTKVEIK | 1.07
10 | MYT13395 (antibody, V domains shown) VH: QVQLQQSGSELKKPGASVKVSCKASGYTFTNYGMNWVKQAPGQGLKWMGWINTYTGEPTYTDDHKGRFAFSLDTSVSTAYLQISSLKADDTAVYFCARGGFGSSYWYFDVWGQGSLVTVSS VL: DIQLTQSPSSLSASVGDRVSITCKASQDVSIAHAWYQQKPGKAPKLLIYSASHRYTGVPDRFSGSGSGTDFTLTISSLQPEDFAVYYCQQHYITPLTFGAGTKVEIK | 1.29
11 | MYT13404 (antibody, V domains shown) VH: QVQLQQSGSELKKPGASVKVSCKASGYTFTNYGMNWVKQAPGQGLKWMGWINTYTGEPTYTDDFHGRFAFSLDTSVSTAYLQISSLKADDTAVYFCARGGFGSSYWYFDVWGQGSLVTVSS VL: DIQLTQSPSSLSASVGDRVSITCKASQDVSIAHAWYQQKPGKAPKLLIYSASYRYTGVPDRFSGSGSGTDFTLTISSLQPEDFAVYYCQQHYHTPLTFGAGTKVEIK | 1.08
12 | MYT13401 (antibody, V domains shown) VH: QVQLQQSGSELKKPGASVKVSCKASGYTFTNYGMNWVKQAPGQGLKWMGWINTYTGEPTYTHDFKGRFAFSLDTSVSTAYLQISSLKADDTAVYFCARGGFGSSYWYFDVWGQGSLVTVSS VL: DIQLTQSPSSLSASVGDRVSITCKASQDVSIAHAWYQQKPGKAPKLLIYSASYRYTGVPDRFSGSGSGTDFTLTISSLQPEDFAVYYCQQHYHTPLTFGAGTKVEIK | 1.16
13 | MYT13413 (antibody, V domains shown) VH: QVQLQQSGSELKKPGASVKVSCKASGYTFTNYGMNWVKQAPGQGLKWMGWINTYTGEPTYTDDFKHRFAFSLDTSVSTAYLQISSLKADDTAVYFCARGGFGSSYWYFDVWGQGSLVTVSS VL: DIQLTQSPSSLSASVGDRVSITCKASQDVSIAVAWYQQKPGKAPKLLIYSHHYRYTGVPDRFSGSGSGTDFTLTISSLQPEDFAVYYCQQHYITPLTFGAGTKVEIK | 1.06
14 | MYT13392 (antibody, V domains shown) VH: QVQLQQSGSELKKPGASVKVSCKASGYTFTNYGMNWVKQAPGQGLKWMGWINTYTGEPTHTDDFKGRFAFSLDTSVSTAYLQISSLKADDTAVYFCARGGFGSSYWYFDVWGQGSLVTVSS VL: DIQLTQSPSSLSASVGDRVSITCKASQDVSIAHAWYQQKPGKAPKLLIYSASHRYTGVPDRFSGSGSGTDFTLTISSLQPEDFAVYYCQQHYITPLTFGAGTKVEIK | 1.19
15 | MYT13388 (antibody, V domains shown) VH: QVQLQQSGSELKKPGASVKVSCKASGYTFTNYGMNWVKQAPGQGLKWMGWINTYTGEPTYTDDFHGRFAFSLDTSVSTAYLQISSLKADDTAVYFCARGGFGSSYWYFDVWGQGSLVTVSS VL: DIQLTQSPSSLSASVGDRVSITCKASQDVHIAVAWYQQKPGKAPKLLIYSAHYRYTGVPDRFSGSGSGTDFTLTISSLQPEDFAVYYCQQHYITPLTFGAGTKVEIK | 1.24
16 | MYT13416 (antibody, V domains shown) VH: QVQLQQSGSELKKPGASVKVSCKASGYTFTNYGMNWVKQAPGQGLKWMGWINTYTGEPTHTDDFKGRFAFSLDTSVSTAYLQISSLKADDTAVYFCARGGFGSSYWYFDVWGQGSLVTVSS VL: DIQLTQSPSSLSASVGDRVSITCKASQDVHIAVAWYQQKPGKAPKLLIYSHSYRYTGVPDRFSGSGSGTDFTLTISSLQPEDFAVYYCHQHYITPLTFGAGTKVEIK | 1.29
17 | MYT13290 (antibody, V domains shown) VH: QVQLQESGPGLVKPSETLSLTCTVSGGSISSYGVHWIRQPPGKGLEWIGVIWTSGVTDYNSALMGRVTISVDTSKNQFSLKLSSVTAADTAVYYCARDGDYDRYTHDYWGQGTLVTVSS VL: DIVMTQSPDSLAVSLGERATINCRASKSVSTSGYSYMHWYQQKPGQPPKLLIYLASNLESGVPDRFSGSGSGTDFTLTISSLQAEDVAVYYCHHSRELPYTFGQGTKLEIK | 1.7
18 | MYT13285 (antibody, V domains shown) VH: QVQLQESGPGLVKPSETLSLTCTVSGGSISSYGVHWIRQPPGKGLEWIGVIWTSGVTDYNSALMGRVTISVDTSKNQFSLKLSSVTAADTAVYYCARDGDYDRYTHDYWGQGTLVTVSS VL: DIVMTQSPDSLAVSLGERATINCRASKSVSTSGYSYMHWYQQKPGQPPKLLIYLASNLEHGVPDRFSGSGSGTDFTLTISSLQAEDVAVYYCQHSRELPYTFGQGTKLEIK | 1.61
19 | MYT13298 (antibody, V domains shown) VH: QVQLQESGPGLVKPSETLSLTCTVSGGSISSYGVHWIRQPPGKGLEWIGVIWTSGVTDYNSALMGRVTISVDTSKNQFSLKLSSVTAADTAVYYCARDGDYHRYTMDYWGQGTLVTVSS VL: DIVMTQSPDSLAVSLGERATINCRASKSVSTSGYSYMHWYQQKPGQPPKLLIYLASNLESGVPDRFSGSGSGTDFTLTISSLQAEDVAVYYCQHSRHLPYTFGQGTKLEIK | 1.59
20 | MYT13283 (antibody, V domains shown) VH: QVQLQESGPGLVKPSETLSLTCTVSGGSISSYGVHWIRQPPGKGLEWIGVIWTSGVTDYNSALMGRVTISVDTSKNQFSLKLSSVTAADTAVYYCARDGDYHRYTMDYWGQGTLVTVSS VL: DIVMTQSPDSLAVSLGERATINCRASKSVSTSGYSYMHWYQQKPGQPPKLLIYLASNLEHGVPDRFSGSGSGTDFTLTISSLQAEDVAVYYCQHSRELPYTFGQGTKLEIK | 1.51
